According to patent US20140010797, “Fusion Molecules of Rationally-Designed DNA-Binding Proteins and Effector Domains” (DUKE UNIVERSITY, published 2014):

Target: T1, CCR2REP (Artificial Sequence, UniProt P05725 SEQ:11-173)
T1 chain: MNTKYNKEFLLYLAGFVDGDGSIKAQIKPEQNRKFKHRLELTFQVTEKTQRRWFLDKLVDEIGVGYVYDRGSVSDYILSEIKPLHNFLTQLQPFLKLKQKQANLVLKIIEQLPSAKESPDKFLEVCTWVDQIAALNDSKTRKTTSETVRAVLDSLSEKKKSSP
Assay: cell_activity; LacZ reporter with truncated CMV promoter, HEK 293
Conditions: tags: N-terminal SV40 NLS, C-terminal Kid-1 KRAB; chain copies: 2
Text: An E. coli beta-galactosidase (LacZ) gene was inserted into the mammalian expression vector pCI (Promega) between PstI and NotI. In this plasmid, LacZ expression is driven by a truncated CMV promoter (corresponding to the 3′ 442 bp of the canonical CMV promoter, SEQ ID NO: 47). A CCR2 recognition sequence (SEQ ID NO: 45) was then inserted at the 5′ end of this promoter (see FIG. 6A).
HEK 293 cells (1×10⁵) were transfected first with either the pCI empty vector or pCI carrying the CCR2REP gene under the control of a constitutive CMV promoter using Lipofectamine 2000 according to the manufacturer's instructions (Invitrogen). 6 hours post-transfection, transfection complexes were removed and replaced with fresh media. 24 hours post-transfection, the cells were re-transfected with the LacZ reporter plasmid using Lipofectamine 2000. As a measure of transfection efficiency, additional cells were transfected at both time points with pCI eGFP. […]
Lysates from transfected cells were subjected to a standard o-nitrophenyl-β-D-galactoside (ONPG) assay (Current Protocols in Molecular Biology. ed. V. B. Chanda. Vol. 2. 2004, John Wiley & Sons, Inc). […] The reaction was stopped with 500 μL 1M Na₂CO₃ after one hour, and the absorbance at 420 nm was measured using a NanoDrop ND-1000 spectrophotometer. β-galactosidase activity was determined using standard equations.

B1: CCR2 palindrome (dsDNA)
DNA 1: AGGCATCTCGTACGAGATGCCT
DNA 2: AGGCATCTCGTACGAGATGCCT
For B1, the activity was ~2.6 fold repression.
